# Results published in the supplement of paper PMC9112550, “Optimization of the antimicrobial peptide Bac7 by deep mutational scanning” (BMC Biology, 2022).
# System: Escherichia coli TOP10
# Assay: shrunken log2 fold change of peptide-encoding DNA abundance (4.5 h post-induction vs induction); higher = less antimicrobial activity (less host growth inhibition)
# Conditions: time post-induction: 4.5 h; library: site-saturation at positions 5, 18, 19, 20
# 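Note: peptides expressed intracellularly from a pBAD plasmid library in pooled LB shake-flask culture, induced with 0.3% L-arabinose, DNA abundance read by NGS, three biological replicates, DESeq2 with apeglm shrinkage.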
row,Sequence,shrunken log2 fold change
1,RRIRMRPPRLPRPRPRPPHEPRP,0.445
2,RRIRMRPPRLPRPRPRPPHIPRP,-0.0498
3,RRIRMRPPRLPRPRPRPPHNPRP,0.767
4,RRIRMRPPRLPRPRPRPPHSPRP,0.851
5,RRIRMRPPRLPRPRPRPPHVPRP,0.865
6,RRIRMRPPRLPRPRPRPPHYPRP,0.728
7,RRIRMRPPRLPRPRPRPPIEPRP,0.309
8,RRIRMRPPRLPRPRPRPPINPRP,-0.195
9,RRIRMRPPRLPRPRPRPPKGPRP,0.873
10,RRIRMRPPRLPRPRPRPPLTPRP,0.843
11,RRIRMRPPRLPRPRPRPPMAPRP,0.841
12,RRIRMRPPRLPRPRPRPPNCPRP,0.0335
13,RRIRMRPPRLPRPRPRPPNYPRP,0.0891
14,RRIRMRPPRLPRPRPRPPPFPRP,1.15
15,RRIRMRPPRLPRPRPRPPRAPRP,1.78
16,RRIRMRPPRLPRPRPRPPSRPRP,1.01
17,RRIRMRPPRLPRPRPRPPSYPRP,0.358
18,RRIRMRPPRLPRPRPRPPTDPRP,1.21
19,RRIRMRPPRLPRPRPRPPVHPRP,0.595
20,RRIRMRPPRLPRPRPRPPWNPRP,0.369
21,RRIRMRPPRLPRPRPRPPWPPRP,1.1
22,RRIRMRPPRLPRPRPRPQAPPRP,0.718

row,Sequence,shrunken log2 fold change
1,RRIRMRPPRLPRPRPRPQFEPRP,0.046
2,RRIRMRPPRLPRPRPRPQFQPRP,-0.165
3,RRIRMRPPRLPRPRPRPQGIPRP,-0.154
4,RRIRMRPPRLPRPRPRPQGKPRP,-0.0118
5,RRIRMRPPRLPRPRPRPQILPRP,-0.0502
6,RRIRMRPPRLPRPRPRPQKIPRP,0.255
7,RRIRMRPPRLPRPRPRPQKPPRP,-0.165
8,RRIRMRPPRLPRPRPRPQKVPRP,0.238
9,RRIRMRPPRLPRPRPRPQLGPRP,-0.0543
10,RRIRMRPPRLPRPRPRPQLWPRP,0.998
11,RRIRMRPPRLPRPRPRPQMFPRP,-0.0181
12,RRIRMRPPRLPRPRPRPQNKPRP,-0.176
13,RRIRMRPPRLPRPRPRPQPIPRP,-0.0134
14,RRIRMRPPRLPRPRPRPQPKPRP,1.77
15,RRIRMRPPRLPRPRPRPQRQPRP,0.0595
16,RRIRMRPPRLPRPRPRPQSGPRP,-0.0103
17,RRIRMRPPRLPRPRPRPQSIPRP,-0.0553
18,RRIRMRPPRLPRPRPRPQSLPRP,-0.0682
19,RRIRMRPPRLPRPRPRPQSPPRP,0.213
20,RRIRMRPPRLPRPRPRPQSTPRP,0.21
21,RRIRMRPPRLPRPRPRPQTNPRP,0.462
22,RRIRMRPPRLPRPRPRPQVKPRP,-0.0452

row,Sequence,shrunken log2 fold change
1,RRIRMRPPRLPRPRPRPQVPPRP,-0.0842
2,RRIRMRPPRLPRPRPRPQVWPRP,0.399
3,RRIRMRPPRLPRPRPRPQWAPRP,-0.0175
4,RRIRMRPPRLPRPRPRPQWQPRP,0.825
5,RRIRMRPPRLPRPRPRPQYQPRP,-0.00342
6,RRIRMRPPRLPRPRPRPRCMPRP,0.511
7,RRIRMRPPRLPRPRPRPRDTPRP,0.964
8,RRIRMRPPRLPRPRPRPRESPRP,0.09
9,RRIRMRPPRLPRPRPRPREYPRP,0.314
10,RRIRMRPPRLPRPRPRPRFPPRP,0.573
11,RRIRMRPPRLPRPRPRPRFRPRP,0.784
12,RRIRMRPPRLPRPRPRPRFVPRP,0.236
13,RRIRMRPPRLPRPRPRPRGAPRP,1.44
14,RRIRMRPPRLPRPRPRPRGIPRP,0.0677
15,RRIRMRPPRLPRPRPRPRGQPRP,1.25
16,RRIRMRPPRLPRPRPRPRGSPRP,0.631
17,RRIRMRPPRLPRPRPRPRINPRP,0.19
18,RRIRMRPPRLPRPRPRPRIRPRP,0.79
19,RRIRMRPPRLPRPRPRPRKTPRP,0.514
20,RRIRMRPPRLPRPRPRPRLAPRP,2.7
21,RRIRMRPPRLPRPRPRPRLKPRP,1.82
22,RRIRMRPPRLPRPRPRPRMFPRP,0.154

row,Sequence,shrunken log2 fold change
1,RRIRMRPPRLPRPRPRPRNCPRP,0.0629
2,RRIRMRPPRLPRPRPRPRNDPRP,0.193
3,RRIRMRPPRLPRPRPRPRNNPRP,0.063
4,RRIRMRPPRLPRPRPRPRNVPRP,0.29
5,RRIRMRPPRLPRPRPRPRPDPRP,0.937
6,RRIRMRPPRLPRPRPRPRQKPRP,0.183
7,RRIRMRPPRLPRPRPRPRQRPRP,1.79
8,RRIRMRPPRLPRPRPRPRQWPRP,0.0789
9,RRIRMRPPRLPRPRPRPRRKPRP,0.416
10,RRIRMRPPRLPRPRPRPRRSPRP,0.438
11,RRIRMRPPRLPRPRPRPRRYPRP,1.15
12,RRIRMRPPRLPRPRPRPRTAPRP,1.29
13,RRIRMRPPRLPRPRPRPRTDPRP,-0.0668
14,RRIRMRPPRLPRPRPRPRTWPRP,1.11
15,RRIRMRPPRLPRPRPRPRVCPRP,0.545
16,RRIRMRPPRLPRPRPRPRVMPRP,0.832
17,RRIRMRPPRLPRPRPRPRWCPRP,0.273
18,RRIRMRPPRLPRPRPRPRWPPRP,1.06
19,RRIRMRPPRLPRPRPRPRYTPRP,0.338
20,RRIRMRPPRLPRPRPRPSAPPRP,0.51
21,RRIRMRPPRLPRPRPRPSCAPRP,0.563
22,RRIRMRPPRLPRPRPRPSDGPRP,-0.205

row,Sequence,shrunken log2 fold change
1,RRIRMRPPRLPRPRPRPSEAPRP,1.95
2,RRIRMRPPRLPRPRPRPSEIPRP,-0.00151
3,RRIRMRPPRLPRPRPRPSETPRP,0.814
4,RRIRMRPPRLPRPRPRPSFCPRP,-0.0778
5,RRIRMRPPRLPRPRPRPSFEPRP,0.318
6,RRIRMRPPRLPRPRPRPSFPPRP,-0.222
7,RRIRMRPPRLPRPRPRPSGMPRP,0.03
8,RRIRMRPPRLPRPRPRPSHGPRP,0.385
9,RRIRMRPPRLPRPRPRPSHHPRP,-0.171
10,RRIRMRPPRLPRPRPRPSICPRP,-0.176
11,RRIRMRPPRLPRPRPRPSKSPRP,0.166
12,RRIRMRPPRLPRPRPRPSKTPRP,0.00519
13,RRIRMRPPRLPRPRPRPSLEPRP,0.895
14,RRIRMRPPRLPRPRPRPSMAPRP,0.925
15,RRIRMRPPRLPRPRPRPSMGPRP,0.0383
16,RRIRMRPPRLPRPRPRPSNQPRP,-0.0365
17,RRIRMRPPRLPRPRPRPSPGPRP,0.564
18,RRIRMRPPRLPRPRPRPSPVPRP,0.384
19,RRIRMRPPRLPRPRPRPSPWPRP,0.61
20,RRIRMRPPRLPRPRPRPSQYPRP,-0.191
21,RRIRMRPPRLPRPRPRPSRQPRP,0.956
